The target in experiment [1] is IL4 receptor (IL4Rα) on mouse sensory neurons (mouse) (UniProt P16382). The experiment can be described thus: cell-based or functional assay.
For experiment [2], the target named is IL10 receptor (IL10Rα) on mouse sensory neurons (mouse) (UniProt Q61727). The experiment can be described thus: cell-based or functional assay.
Chain of UniProt Q61727 (Q61727 17-575): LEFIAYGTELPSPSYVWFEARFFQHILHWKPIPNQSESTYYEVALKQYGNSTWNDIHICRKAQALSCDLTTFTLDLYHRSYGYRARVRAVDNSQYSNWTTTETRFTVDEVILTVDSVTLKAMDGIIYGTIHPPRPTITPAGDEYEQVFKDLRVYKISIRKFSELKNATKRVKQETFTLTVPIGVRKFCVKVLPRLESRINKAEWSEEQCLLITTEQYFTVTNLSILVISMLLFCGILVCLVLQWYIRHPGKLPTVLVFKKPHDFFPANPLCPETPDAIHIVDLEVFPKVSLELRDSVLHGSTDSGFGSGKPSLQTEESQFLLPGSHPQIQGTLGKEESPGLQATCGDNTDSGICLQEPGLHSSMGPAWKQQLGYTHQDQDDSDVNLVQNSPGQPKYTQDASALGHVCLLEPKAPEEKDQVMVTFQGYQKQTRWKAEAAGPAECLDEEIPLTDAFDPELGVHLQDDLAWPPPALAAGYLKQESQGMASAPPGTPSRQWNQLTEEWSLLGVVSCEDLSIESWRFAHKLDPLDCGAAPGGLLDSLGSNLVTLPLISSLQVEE

Chain of UniProt P16382 (P16382 26-810): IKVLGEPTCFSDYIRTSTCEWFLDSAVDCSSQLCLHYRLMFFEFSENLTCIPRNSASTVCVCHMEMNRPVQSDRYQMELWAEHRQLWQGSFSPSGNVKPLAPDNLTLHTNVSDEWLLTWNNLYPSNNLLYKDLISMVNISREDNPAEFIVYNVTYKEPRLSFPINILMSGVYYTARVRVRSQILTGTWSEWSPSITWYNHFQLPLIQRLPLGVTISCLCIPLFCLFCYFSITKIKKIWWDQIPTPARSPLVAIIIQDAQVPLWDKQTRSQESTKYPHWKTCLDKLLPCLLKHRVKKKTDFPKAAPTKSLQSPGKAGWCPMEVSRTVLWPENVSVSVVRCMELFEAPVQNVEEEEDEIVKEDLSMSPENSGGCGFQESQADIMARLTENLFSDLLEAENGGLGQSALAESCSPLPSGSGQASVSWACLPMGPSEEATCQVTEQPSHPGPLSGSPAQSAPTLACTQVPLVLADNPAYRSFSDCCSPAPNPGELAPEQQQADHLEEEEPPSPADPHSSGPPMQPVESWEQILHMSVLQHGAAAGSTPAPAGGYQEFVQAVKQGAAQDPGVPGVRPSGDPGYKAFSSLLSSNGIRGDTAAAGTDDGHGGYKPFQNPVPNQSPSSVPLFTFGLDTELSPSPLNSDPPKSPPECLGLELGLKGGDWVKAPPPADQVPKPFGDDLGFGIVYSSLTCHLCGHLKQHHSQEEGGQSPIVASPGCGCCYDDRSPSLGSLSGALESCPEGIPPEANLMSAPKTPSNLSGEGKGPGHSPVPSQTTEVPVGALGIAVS

Regarding IL4-10 fusion protein (ligand), the concentration that completely reversed TNFα-induced sensitization of capsaicin-evoked calcium influx in experiment [1] and in experiment [2] was 3 nM throughout.

The values above are taken from patent US20220143145A1.
